Assay results from article PMC9947773, “Modeling C3 glomerulopathies: C3 convertase regulation on an extracellular matrix surface” (Frontiers in Immunology, 2022).

Molecular target: T1, C3b (human, UniProt P01024 23-667; P01024 749-1663)
T1 construct: complement C3, human; beta chain of C3b; alpha' chain of C3b (alpha chain without C3a); Coated on MaxGel (ECM) in microtiter wells at 130 ug/ml; also called purified C3b; source: bought: Complement Technology Inc., purified
Assay: C3 convertase formation assay (C3CFA), elution and western blot for Bb; C3b coated on MaxGel; FB + FD with Factor H or a Factor H variant as reactant (22.5 ug/ml), 10 min at 37°C; washed x3; eluted
Conditions: both partners purified

T1 sequence (P01024 23-667, chain 1 of 2): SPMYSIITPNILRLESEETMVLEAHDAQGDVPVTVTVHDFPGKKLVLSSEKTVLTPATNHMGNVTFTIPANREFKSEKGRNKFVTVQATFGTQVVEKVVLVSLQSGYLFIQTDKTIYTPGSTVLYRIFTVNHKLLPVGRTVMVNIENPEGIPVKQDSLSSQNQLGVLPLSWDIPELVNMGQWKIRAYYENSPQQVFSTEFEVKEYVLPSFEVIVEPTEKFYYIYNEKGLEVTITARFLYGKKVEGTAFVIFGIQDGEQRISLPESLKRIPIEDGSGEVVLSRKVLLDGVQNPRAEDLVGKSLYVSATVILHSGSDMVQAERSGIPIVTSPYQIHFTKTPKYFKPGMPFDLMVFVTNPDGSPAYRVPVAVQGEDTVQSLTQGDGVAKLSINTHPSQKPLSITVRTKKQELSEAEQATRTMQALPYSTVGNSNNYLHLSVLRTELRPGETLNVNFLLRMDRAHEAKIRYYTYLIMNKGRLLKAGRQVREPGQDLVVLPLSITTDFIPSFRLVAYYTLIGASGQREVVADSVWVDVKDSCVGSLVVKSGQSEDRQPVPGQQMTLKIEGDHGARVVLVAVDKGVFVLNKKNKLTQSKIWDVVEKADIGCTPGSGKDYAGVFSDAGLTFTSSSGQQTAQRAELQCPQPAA
T1 sequence (P01024 749-1663, chain 2 of 2): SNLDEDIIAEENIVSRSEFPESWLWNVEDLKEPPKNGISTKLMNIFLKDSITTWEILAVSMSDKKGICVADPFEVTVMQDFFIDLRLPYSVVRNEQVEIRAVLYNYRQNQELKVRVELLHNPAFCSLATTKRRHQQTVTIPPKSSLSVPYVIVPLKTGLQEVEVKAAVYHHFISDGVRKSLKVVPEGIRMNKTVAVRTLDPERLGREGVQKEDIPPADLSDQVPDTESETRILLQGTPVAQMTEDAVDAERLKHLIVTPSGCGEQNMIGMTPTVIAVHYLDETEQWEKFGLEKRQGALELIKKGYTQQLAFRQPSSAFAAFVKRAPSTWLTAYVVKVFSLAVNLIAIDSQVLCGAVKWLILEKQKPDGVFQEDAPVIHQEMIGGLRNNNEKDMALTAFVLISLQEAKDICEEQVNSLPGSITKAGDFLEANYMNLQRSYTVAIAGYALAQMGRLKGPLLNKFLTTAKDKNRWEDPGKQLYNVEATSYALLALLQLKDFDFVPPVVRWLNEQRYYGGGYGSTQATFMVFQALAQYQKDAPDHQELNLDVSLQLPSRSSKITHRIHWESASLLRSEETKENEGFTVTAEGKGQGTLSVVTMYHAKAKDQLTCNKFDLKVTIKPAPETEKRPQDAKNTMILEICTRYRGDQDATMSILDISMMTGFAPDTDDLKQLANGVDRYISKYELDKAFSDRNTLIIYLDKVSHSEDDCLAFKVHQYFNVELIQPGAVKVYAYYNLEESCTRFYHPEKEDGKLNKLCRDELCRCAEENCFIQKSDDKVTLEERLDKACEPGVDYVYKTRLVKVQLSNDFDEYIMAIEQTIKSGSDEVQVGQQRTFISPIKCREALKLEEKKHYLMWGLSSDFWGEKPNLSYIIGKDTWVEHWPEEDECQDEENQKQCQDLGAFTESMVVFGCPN

- binding result: binds
B1: Factor H (natural protein, human, UniProt P08603 19-1231, looked up)
chain: EDCNELPPRRNTEILTGSWSDQTYPEGTQAIYKCRPGYRSLGNVIMVCRKGEWVALNPLRKCQKRPCGHPGDTPFGTFTLTGGNVFEYGVKAVYTCNEGYQLLGEINYRECDTDGWTNDIPICEVVKCLPVTAPENGKIVSSAMEPDREYHFGQAVRFVCNSGYKIEGDEEMHCSDDGFWSKEKPKCVEISCKSPDVINGSPISQKIIYKENERFQYKCNMGYEYSERGDAVCTESGWRPLPSCEEKSCDNPYIPNGDYSPLRIKHRTGDEITYQCRNGFYPATRGNTAKCTSTGWIPAPRCTLKPCDYPDIKHGGLYHENMRRPYFPVAVGKYYSYYCDEHFETPSGSYWDHIHCTQDGWSPAVPCLRKCYFPYLENGYNQNYGRKFVQGKSIDVACHPGYALPKAQTTVTCMENGWSPTPRCIRVKTCSKSSIDIENGFISESQYTYALKEKAKYQCKLGYVTADGETSGSITCGKDGWSAQPTCIKSCDIPVFMNARTKNDFTWFKLNDTLDYECHDGYESNTGSTTGSIVCGYNGWSDLPICYERECELPKIDVHLVPDRKKDQYKVGEVLKFSCKPGFTIVGPNSVQCYHFGLSPDLPICKEQVQSCGPPPELLNGNVKEKTKEEYGHSEVVEYYCNPRFLMKGPNKIQCVDGEWTTLPVCIVEESTCGDIPELEHGWAQLSSPPYYYGDSVEFNCSESFTMIGHRSITCIHGVWTQLPQCVAIDKLKKCKSSNLIILEEHLKNKKEFDHNSNIRYRCRGKEGWIHTVCINGRWDPEVNCSMAQIQLCPPPPQIPNSHNMTTTLNYRDGEKVSVLCQENYLIQEGEEITCKDGRWQSIPLCVEKIPCSQPPQIEHGTINSSRSSQESYAHGTKLSYTCEGGFRISEENETTCYMGKWSSPPQCEGLPCKSPPEISHGVVAHMSDSYQYGEEVTYKCFEGFGIDGPAIAKCLGEKWSHPPSCIKTDCLSLPSFENAIPMGEKKDVYKAGEQVTYTCATYYKMDGASNVTCINSRWTGRPTCRDTSCVNPPTVQNAYIVSRQMSKYPSGERVRYQCRSPYEMFGDEEVMCLNGNWTEPPQCKDSTGKCGPPPPIDNGDITSFPLSVYAPASSVEYQCQNLYQLEGNKRITCRNGQWSEPPKCLHPCVISREIMENYNIALRWTAKQKLYSRTGESVEFVCKRGYRLSSRSHTLRTTCWDGKLEYPTCAKR
notes: complement factor H, human; Used at 22.5 ug/ml; also called FH; WT FH; source: bought: Complement Technology Inc
